What all share (assay): Ni-NTA pull-down with immunoblot quantification (ImageJ)
Common to all, as to conditions: chain shown with the change; U2OS UNC45A-KO cells cotransfected; 5 independent experiments; parent: est. 1; read off a plot
(Immunoblotting shows a protein as a band on a membrane.)

Test [1] concerns the target T1, His-tagged UNC45A p.Leu237Pro mutant, Q9H3U1-1.
T1 chain: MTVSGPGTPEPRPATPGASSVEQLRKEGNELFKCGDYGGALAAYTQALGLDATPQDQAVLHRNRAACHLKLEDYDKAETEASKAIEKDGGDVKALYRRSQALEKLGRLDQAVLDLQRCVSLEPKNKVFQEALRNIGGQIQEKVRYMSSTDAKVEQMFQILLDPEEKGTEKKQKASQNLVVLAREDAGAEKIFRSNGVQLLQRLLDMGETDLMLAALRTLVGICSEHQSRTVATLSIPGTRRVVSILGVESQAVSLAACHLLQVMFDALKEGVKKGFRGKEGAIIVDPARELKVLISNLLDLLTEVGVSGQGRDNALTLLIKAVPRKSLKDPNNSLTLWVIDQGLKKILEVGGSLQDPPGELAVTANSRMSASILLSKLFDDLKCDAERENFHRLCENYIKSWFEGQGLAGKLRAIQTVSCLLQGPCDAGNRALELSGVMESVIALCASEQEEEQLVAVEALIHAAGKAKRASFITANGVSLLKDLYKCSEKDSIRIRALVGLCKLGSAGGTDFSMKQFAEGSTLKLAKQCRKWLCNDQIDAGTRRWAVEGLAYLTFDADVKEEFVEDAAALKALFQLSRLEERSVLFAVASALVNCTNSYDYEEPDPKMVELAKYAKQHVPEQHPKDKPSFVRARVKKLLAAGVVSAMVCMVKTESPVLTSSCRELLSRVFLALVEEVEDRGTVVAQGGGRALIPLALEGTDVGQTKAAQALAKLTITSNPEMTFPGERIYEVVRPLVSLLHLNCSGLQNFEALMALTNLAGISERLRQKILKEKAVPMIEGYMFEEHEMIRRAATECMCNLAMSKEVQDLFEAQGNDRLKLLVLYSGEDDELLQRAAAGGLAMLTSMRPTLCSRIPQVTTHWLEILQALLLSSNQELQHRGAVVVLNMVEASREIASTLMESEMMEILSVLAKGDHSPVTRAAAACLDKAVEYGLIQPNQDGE

Test [2] has as its target T2, HA-tagged UNC45A wild-type (Unc-45 myosin chaperone A), Q9H3U1-1.
T2 chain: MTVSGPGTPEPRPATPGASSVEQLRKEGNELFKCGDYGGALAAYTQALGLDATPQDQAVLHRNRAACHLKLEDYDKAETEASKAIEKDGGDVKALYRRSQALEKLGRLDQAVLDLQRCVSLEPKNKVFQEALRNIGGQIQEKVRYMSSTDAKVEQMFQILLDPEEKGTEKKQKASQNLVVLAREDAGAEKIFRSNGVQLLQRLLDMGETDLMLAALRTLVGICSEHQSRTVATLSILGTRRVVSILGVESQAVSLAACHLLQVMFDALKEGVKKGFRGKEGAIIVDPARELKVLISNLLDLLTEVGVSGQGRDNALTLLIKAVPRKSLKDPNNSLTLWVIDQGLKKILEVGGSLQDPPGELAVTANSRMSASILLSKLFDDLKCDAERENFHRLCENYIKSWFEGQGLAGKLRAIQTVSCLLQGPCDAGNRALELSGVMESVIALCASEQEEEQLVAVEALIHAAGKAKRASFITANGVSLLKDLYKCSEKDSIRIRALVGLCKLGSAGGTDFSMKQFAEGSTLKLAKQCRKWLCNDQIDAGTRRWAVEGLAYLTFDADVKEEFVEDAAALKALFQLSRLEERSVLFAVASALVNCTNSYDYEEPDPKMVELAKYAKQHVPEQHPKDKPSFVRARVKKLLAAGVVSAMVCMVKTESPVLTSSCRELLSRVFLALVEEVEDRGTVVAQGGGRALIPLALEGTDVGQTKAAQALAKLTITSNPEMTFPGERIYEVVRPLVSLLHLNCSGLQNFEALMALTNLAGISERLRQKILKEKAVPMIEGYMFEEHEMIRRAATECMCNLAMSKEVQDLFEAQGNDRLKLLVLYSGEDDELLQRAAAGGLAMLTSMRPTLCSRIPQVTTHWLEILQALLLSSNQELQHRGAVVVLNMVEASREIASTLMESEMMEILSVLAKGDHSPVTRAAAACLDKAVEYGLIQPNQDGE

In test [3] the target is T3, His-tagged UNC45A wild-type, Q9H3U1-1.
T3 chain: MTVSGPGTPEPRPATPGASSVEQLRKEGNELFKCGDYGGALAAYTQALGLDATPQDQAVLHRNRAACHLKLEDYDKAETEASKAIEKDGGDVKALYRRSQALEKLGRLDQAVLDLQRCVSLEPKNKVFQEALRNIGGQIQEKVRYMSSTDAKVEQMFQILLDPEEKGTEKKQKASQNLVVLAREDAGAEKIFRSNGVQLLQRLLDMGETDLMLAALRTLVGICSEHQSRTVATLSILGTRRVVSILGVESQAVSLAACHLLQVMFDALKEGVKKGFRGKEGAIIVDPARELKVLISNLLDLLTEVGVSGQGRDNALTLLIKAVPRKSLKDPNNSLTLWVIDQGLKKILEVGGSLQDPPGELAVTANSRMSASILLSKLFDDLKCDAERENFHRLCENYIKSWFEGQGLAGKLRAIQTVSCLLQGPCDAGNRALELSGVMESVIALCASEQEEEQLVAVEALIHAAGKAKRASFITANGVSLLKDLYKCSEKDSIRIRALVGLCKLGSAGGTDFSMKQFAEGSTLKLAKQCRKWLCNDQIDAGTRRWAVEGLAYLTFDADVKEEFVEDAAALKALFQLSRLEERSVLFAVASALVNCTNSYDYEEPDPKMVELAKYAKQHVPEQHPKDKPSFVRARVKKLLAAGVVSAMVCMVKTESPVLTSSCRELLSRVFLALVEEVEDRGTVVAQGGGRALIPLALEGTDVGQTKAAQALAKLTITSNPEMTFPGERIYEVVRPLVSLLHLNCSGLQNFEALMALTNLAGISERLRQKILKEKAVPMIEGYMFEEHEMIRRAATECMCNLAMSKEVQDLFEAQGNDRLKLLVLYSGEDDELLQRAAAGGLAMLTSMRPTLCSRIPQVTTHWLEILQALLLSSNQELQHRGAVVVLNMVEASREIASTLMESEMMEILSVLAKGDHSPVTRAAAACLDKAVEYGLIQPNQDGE

B1: m1 (prey) and m3 (bait) p.Leu237Pro (HA-tagged prey); p.Leu237Pro (His-tagged bait) (protein)
chain: MTVSGPGTPEPRPATPGASSVEQLRKEGNELFKCGDYGGALAAYTQALGLDATPQDQAVLHRNRAACHLKLEDYDKAETEASKAIEKDGGDVKALYRRSQALEKLGRLDQAVLDLQRCVSLEPKNKVFQEALRNIGGQIQEKVRYMSSTDAKVEQMFQILLDPEEKGTEKKQKASQNLVVLAREDAGAEKIFRSNGVQLLQRLLDMGETDLMLAALRTLVGICSEHQSRTVATLSIPGTRRVVSILGVESQAVSLAACHLLQVMFDALKEGVKKGFRGKEGAIIVDPARELKVLISNLLDLLTEVGVSGQGRDNALTLLIKAVPRKSLKDPNNSLTLWVIDQGLKKILEVGGSLQDPPGELAVTANSRMSASILLSKLFDDLKCDAERENFHRLCENYIKSWFEGQGLAGKLRAIQTVSCLLQGPCDAGNRALELSGVMESVIALCASEQEEEQLVAVEALIHAAGKAKRASFITANGVSLLKDLYKCSEKDSIRIRALVGLCKLGSAGGTDFSMKQFAEGSTLKLAKQCRKWLCNDQIDAGTRRWAVEGLAYLTFDADVKEEFVEDAAALKALFQLSRLEERSVLFAVASALVNCTNSYDYEEPDPKMVELAKYAKQHVPEQHPKDKPSFVRARVKKLLAAGVVSAMVCMVKTESPVLTSSCRELLSRVFLALVEEVEDRGTVVAQGGGRALIPLALEGTDVGQTKAAQALAKLTITSNPEMTFPGERIYEVVRPLVSLLHLNCSGLQNFEALMALTNLAGISERLRQKILKEKAVPMIEGYMFEEHEMIRRAATECMCNLAMSKEVQDLFEAQGNDRLKLLVLYSGEDDELLQRAAAGGLAMLTSMRPTLCSRIPQVTTHWLEILQALLLSSNQELQHRGAVVVLNMVEASREIASTLMESEMMEILSVLAKGDHSPVTRAAAACLDKAVEYGLIQPNQDGE
As to B1, the ratio to parent in test [1] came out at 12 fold change.

B2: His-tagged UNC45A wild-type, Q9H3U1-1 p.Leu237Pro (protein)
chain: MTVSGPGTPEPRPATPGASSVEQLRKEGNELFKCGDYGGALAAYTQALGLDATPQDQAVLHRNRAACHLKLEDYDKAETEASKAIEKDGGDVKALYRRSQALEKLGRLDQAVLDLQRCVSLEPKNKVFQEALRNIGGQIQEKVRYMSSTDAKVEQMFQILLDPEEKGTEKKQKASQNLVVLAREDAGAEKIFRSNGVQLLQRLLDMGETDLMLAALRTLVGICSEHQSRTVATLSIPGTRRVVSILGVESQAVSLAACHLLQVMFDALKEGVKKGFRGKEGAIIVDPARELKVLISNLLDLLTEVGVSGQGRDNALTLLIKAVPRKSLKDPNNSLTLWVIDQGLKKILEVGGSLQDPPGELAVTANSRMSASILLSKLFDDLKCDAERENFHRLCENYIKSWFEGQGLAGKLRAIQTVSCLLQGPCDAGNRALELSGVMESVIALCASEQEEEQLVAVEALIHAAGKAKRASFITANGVSLLKDLYKCSEKDSIRIRALVGLCKLGSAGGTDFSMKQFAEGSTLKLAKQCRKWLCNDQIDAGTRRWAVEGLAYLTFDADVKEEFVEDAAALKALFQLSRLEERSVLFAVASALVNCTNSYDYEEPDPKMVELAKYAKQHVPEQHPKDKPSFVRARVKKLLAAGVVSAMVCMVKTESPVLTSSCRELLSRVFLALVEEVEDRGTVVAQGGGRALIPLALEGTDVGQTKAAQALAKLTITSNPEMTFPGERIYEVVRPLVSLLHLNCSGLQNFEALMALTNLAGISERLRQKILKEKAVPMIEGYMFEEHEMIRRAATECMCNLAMSKEVQDLFEAQGNDRLKLLVLYSGEDDELLQRAAAGGLAMLTSMRPTLCSRIPQVTTHWLEILQALLLSSNQELQHRGAVVVLNMVEASREIASTLMESEMMEILSVLAKGDHSPVTRAAAACLDKAVEYGLIQPNQDGE
As to B2, the ratio to parent in test [2] amounted to 2.2 fold change.

B3: HA-tagged UNC45A wild-type (Unc-45 myosin chaperone A), Q9H3U1-1 p.Leu237Pro (protein)
chain: MTVSGPGTPEPRPATPGASSVEQLRKEGNELFKCGDYGGALAAYTQALGLDATPQDQAVLHRNRAACHLKLEDYDKAETEASKAIEKDGGDVKALYRRSQALEKLGRLDQAVLDLQRCVSLEPKNKVFQEALRNIGGQIQEKVRYMSSTDAKVEQMFQILLDPEEKGTEKKQKASQNLVVLAREDAGAEKIFRSNGVQLLQRLLDMGETDLMLAALRTLVGICSEHQSRTVATLSIPGTRRVVSILGVESQAVSLAACHLLQVMFDALKEGVKKGFRGKEGAIIVDPARELKVLISNLLDLLTEVGVSGQGRDNALTLLIKAVPRKSLKDPNNSLTLWVIDQGLKKILEVGGSLQDPPGELAVTANSRMSASILLSKLFDDLKCDAERENFHRLCENYIKSWFEGQGLAGKLRAIQTVSCLLQGPCDAGNRALELSGVMESVIALCASEQEEEQLVAVEALIHAAGKAKRASFITANGVSLLKDLYKCSEKDSIRIRALVGLCKLGSAGGTDFSMKQFAEGSTLKLAKQCRKWLCNDQIDAGTRRWAVEGLAYLTFDADVKEEFVEDAAALKALFQLSRLEERSVLFAVASALVNCTNSYDYEEPDPKMVELAKYAKQHVPEQHPKDKPSFVRARVKKLLAAGVVSAMVCMVKTESPVLTSSCRELLSRVFLALVEEVEDRGTVVAQGGGRALIPLALEGTDVGQTKAAQALAKLTITSNPEMTFPGERIYEVVRPLVSLLHLNCSGLQNFEALMALTNLAGISERLRQKILKEKAVPMIEGYMFEEHEMIRRAATECMCNLAMSKEVQDLFEAQGNDRLKLLVLYSGEDDELLQRAAAGGLAMLTSMRPTLCSRIPQVTTHWLEILQALLLSSNQELQHRGAVVVLNMVEASREIASTLMESEMMEILSVLAKGDHSPVTRAAAACLDKAVEYGLIQPNQDGE
As for B3, the ratio to parent in test [3] turned out to be 1.6 fold change.

Source of the values: paper PMC11949031.
